The supplement of paper PMC10567573

B1: EMD (parent)
chain: YQSKGYNDDYYEESYFTTRTYGEP

Variants of: B1
Test: protein stability index of a GFP-peptide fusion (GPS, HEK-293T) (PSI 1-6); higher = more stable
Conditions: c terminus: a fixed tail appended
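Further: lentivirally expressed fusions sorted by FACS into six bins by GFP to DsRed ratio, PSI derived from sequencing read proportions per bin multiplied by bin number.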

Protein stability index: each site, then its substitutions
K4: P 2.5; Q 2.39; R 2.44; S 2.3; T 2.38; V 2.54; W 2.39; Y 2.06
G5: A 1.93; C 1.95; D 3.08; E 3.1; F 2.33; H 1.89; I 2.18; K 2.22; L 1.82; M 1.74; N 2.33; P 2.1; Q 2.48; R 1.97; S 2.9; T 2.52; V 2.06; W 2.92; Y 1.89
Y6: A 3.26; C 2.65; D 3.68; E 3.76; F 2.4; G 3.01; H 2.82; I 2.83; K 3.05; L 2.24; M 2.85; N 3.16; P 3.3; Q 2.93; R 2.56; S 3.77; T 3.34; V 3.31; W 1.48
N7: A 2.25; C 2.05; D 2.62; E 2.87; F 3.55; G 2.13; H 2.18; I 1.76; K 1.94; L 1.71; M 1.67; P 2.17; Q 2.14; R 1.75; S 2.47; T 2.14; V 2.13; W 3.23; Y 1.88
D8: A 1.5; C 2.62; E 2.13; F 2.13; G 1.65; H 1.96; I 2.05; K 1.91; L 2.37; M 3.87; N 1.82; P 2.36; Q 1.67; R 1.8; S 1.92; T 2.09; V 2.47; W 2.85; Y 1.72
D9: A 1.44; C 1.18; E 2.06; F 2.44; G 2.7; H 1.89; I 1.57; K 1.52; L 2.01; M 1.96; N 1.74; P 1.71; Q 1.93; R 1.96; S 1.57; T 1.79; V 1.85; W 2.68; Y 1.79
Y10: A 2.2; C 2.47; D 2.85; E 3.04; F 2.11; G 2.49; H 2.45; I 2.52; K 2.44; L 2.18; M 2.12; N 2.64; P 2.53; Q 2.67; R 2.82; S 2.65; T 2.5; V 2.82; W 2.38
Y11: A 2.97; C 2.36; D 3.29; E 3.16; F 1.68; G 2.84; H 2.6; I 2.19; K 2.19; L 2.38; M 2.51; N 2.98; P 2.19; Q 2.8; R 2.66; S 2.8; T 2.94; V 2.34; W 1.87
E12: A 2.19; C 1.75; D 2.57; F 2.11; G 1.84; H 1.52; I 2.38; K 2.33; L 2.14; M 2.26; N 1.95; P 2.12; Q 1.86; R 1.73; S 2.33; T 2.2; V 1.71; W 2.19; Y 1.79
E13: A 1.95; C 1.53; D 2.42; F 3.37; G 2; H 1.47; I 1.67; K 1.67; L 1.93; M 2.68; N 1.64; P 1.74; Q 1.87; R 1.82; S 2.16; T 2.29; V 1.71; W 1.83; Y 1.91
S14: A 1.88; C 1.77; D 2.44; E 2.83; F 1.78; G 2.37; H 2.13; I 1.76; K 2.16; L 2.08; M 2.26; N 2.35; P 2.62; Q 2.34; R 1.9; T 2.38; V 2.19; W 2.29; Y 2.28
Y15: A 2.92; C 2.37; D 3.64; E 3.41; F 1.69; G 2.96; H 2.9; I 2.11; K 2.63; L 2; M 2.42; N 3.06; P 2.35; Q 2.91; R 2.75; S 2.96; T 2.8; V 2.62; W 2.24
F16: A 3.2; C 3.12; D 3.47; E 3.64; G 3.26; H 3.08; I 2.95; K 3.15; L 3.38; M 2.91; N 3.59; P 3.19; Q 3.1; R 2.69; S 2.88; T 3.14; V 2.85; W 1.45; Y 2.28
T17: A 2.36; C 1.96; D 3.19; E 3.02; F 1.85; G 2.82; H 2.07; I 2.1; K 2.56; L 2.42; M 1.71; N 2.35; P 2.4; Q 2.31; R 2.44; S 2.48; V 2.13; W 2.15; Y 2.23
T18: A 2.31; C 2.08; D 2.46; E 2.44; F 1.39; G 2.09; H 2.17; I 1.77; K 2.65; L 2.11; M 2.04; N 2.5; P 1.88; Q 2.3; R 2.79; S 2.38; V 1.95; W 2.02; Y 1.76
R19: A 2.29; C 2.08; D 3.08; E 3.12; F 2.11; G 3.07; H 2.5; I 2.09; K 2.46; L 2.21; M 2.35; N 2.87; P 2.53; Q 2.88; S 2.53; T 2.81; V 2.26; W 2.03; Y 2.52
T20: A 2.15; C 2.26; D 2.52; E 2.52; F 2.23; G 2.6; H 2.1; I 1.73; K 2.05; L 2.4; M 2.29; N 2.53; P 2.17; Q 1.86; R 2.1; S 2.33; V 2.1; W 1.46; Y 1.44
Y21: A 2.76; C 2.81; D 3.06; E 3.18; F 2.02; G 2.98; H 2.86; I 2.39; K 2.52; L 2.32; M 2.97; N 2.68; P 2.76; Q 2.53; R 2.46; S 2.77; T 2.27; V 2.93; W 1.96
G22: A 2.1; C 1.92; D 2.23
